Measured values: the RNAGym collection of RNA variant scans (doi:10.1073/pnas.2313332121)
Fewer inactive variants are shown than the library holds.

B1: TPR 5TU (parent)
chain: GGAUCUUCUCGAUCUAACAAAAAAGACAAAUCUGCCACAAAGCUUGAGAGCAUCUUCGGAUGCAGAGGCGGCAGCCUUCGGUGGCGCGAUAGCGCCAACGUUCUCAACUAUGACACGCAAAACGCGUGCUCCGUUGAAUGGAGUUUAUCAUG

Variants of: B1
Assay: polymerase ribozyme fitness, log enrichment relative to wild type (log ratio); higher = more active; in vitro selection for triplet polymerase activity
How it was run: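 Fitness measures genotype enrichment against wild-type enrichment on a logarithmic scale, with inverse-variance-weighted averaging of replicates. The logarithm is base 2, and genotypes were kept only with ≥10 input reads and ≥1 read per output in Illumina sequencing. The sequenced libraries came from one triplicate in vitro selection round, including frozen incubation at −7 °C, of PCR-built, transcribed mutant libraries of each subunit of a heterodimeric triplet polymerase ribozyme.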

| Variant | polymerase ribozyme fitness (log ratio) |
| --- | --- |
| C27G C38A C85A C87G G126A A137G | ≤ -4.2 |
| C27G C32A C93U C96U | -4.06 |
| C27G G143C A150G | ≤ -4.2 |
| A29G G94U C114U G128A | ≤ -4.2 |
| A26U C76A G86C G92C C95A U144G | ≤ -4.2 |
| A29G A52C G74A G92U C95G | ≤ -4.2 |
| C27G G46A A64C U77G G88U A121U | ≤ -4.2 |
| A28G A73U | ≤ -4.2 |
| A26U C85U U146G | -1.93 |
| A26U U44A C93A A142C | ≤ -4.2 |
| A28C A39C | ≤ -4.2 |
| A28U A41U G67C C93U | ≤ -4.2 |
| A28U U33G A89G A91G C95A A98C | ≤ -4.2 |
| A26U G58C A60C G100A A115G | ≤ -4.2 |
| A29C A30U A89C | ≤ -4.2 |
| A26U A41C A49U U53A C95U U130A C132A G143A U148C | ≤ -4.2 |
| C27G U31C G62C C63G C85U A142U | ≤ -4.2 |
| A28U C93G | ≤ -4.2 |
| A29C A41G G46U A49G C75U G83A A121G G152U | ≤ -4.2 |
| A28C A40C G48U G50C C95U G117C A119U C123U | ≤ -4.2 |
| C27A U82A A91G C131G U139C | ≤ -4.2 |
| C27U C54G C87U G92A C118A U144G | -3.12 |
| C27A U77A G94A C114U | ≤ -4.2 |
| C27U A30C C87G G128A C131A U134C G141U | -4.13 |

| Variant | polymerase ribozyme fitness (log ratio) |
| --- | --- |
| A28U G50A U77C C85A C96G C105G G141A U144C | ≤ -4.2 |
| A28G C51A G80A | ≤ -4.2 |
| C27A U33G U55A C116G | -4.1 |
| C27A A41G C54A C72G C103G G133U G141U U144A U145G | ≤ -4.2 |
| A29C C69G C103G U151G | ≤ -4.2 |
| A26U U31G C36U G81U C149G | ≤ -4.2 |
| C27U U31C A52G U134C | -0.377 |
| A26U G141U U144G | -3.78 |
| C27A C43G G92C U101C U127G U146A | ≤ -4.2 |
| A29G U31C A52G C57U C85U C87A A150U | ≤ -4.2 |
| C27A C32U C95G A115C A122U C129A C131A | ≤ -4.2 |
| C27U A37C G50U C95A | -2.6 |
| C27A C79U | ≤ -4.2 |
| A29C C79G C96U U104C | ≤ -4.2 |
| C27G C38A G42A G62A G68A A122C G128A U146G | -4.01 |
| A26U C36A U56G C108A A137C | ≤ -4.2 |
| A26U G59C U61A C75G A138C | ≤ -4.2 |
| C27U U55G U61A C87G | ≤ -4.2 |
| C27G U61A A66G C76A C85A G141A | ≤ -4.2 |
| A28U A49C U56A C95A C96U C108U | ≤ -4.2 |
| A26U C87U G141U | -1.66 |
| A26U G59U C69G A142G | -2.52 |
| C27G C95U | -3.51 |
| A29C U55A | -3.74 |

| Variant | polymerase ribozyme fitness (log ratio) |
| --- | --- |
| A28C G94C | -4.04 |
| A28U U82C C93U C96G C105A | ≤ -4.2 |
| C27G U56A C99A | ≤ -4.2 |
| A29C C76A A91U A110G | ≤ -4.2 |
| A28U A41U C93U U144C | -4.14 |
| A26U C69U | -1.87 |
| A28U U45A U78G G81C C116G G136U | ≤ -4.2 |
| A26G C87G U127A C129G | ≤ -4.2 |
| C27G C96U | -3.97 |
| C27A G62A C87G A91C | ≤ -4.2 |
| A28U G80U | -4.11 |
| A29G U78C | ≤ -4.2 |
| C27U G62C C63U G94U U104C G152U | ≤ -4.2 |
| A26U U55G G88U G94A G124A C125G G126A A142U | ≤ -4.2 |
| A28U C36A A47G G59A C85A C129U U145A | ≤ -4.2 |
| A26G A37U C75U G92A G133C G143U | ≤ -4.2 |
| C27U C36A A39C A41G G68A C93A A138G U139A | ≤ -4.2 |
| A26U G92U | -2.66 |
| A29G C93U A107G U148G | ≤ -4.2 |
| A28U C95U C99U C118A | ≤ -4.2 |
| C27U C54G G84A C95G A122G | -2.89 |
| C27U A37G U104G | -4.08 |
| A29G C54U G59A C76U U82C G88C C95G C96G | ≤ -4.2 |
| A29C G68A G92C G133A | ≤ -4.2 |

| Variant | polymerase ribozyme fitness (log ratio) |
| --- | --- |
| A28C G81C G92U C103G | ≤ -4.2 |
| A28U G70C A91G G133C | ≤ -4.2 |
| C27A C36U G74C C75G G84U C93G A97C G117A | ≤ -4.2 |
| A26U C38A | -2.37 |
| A28G G58C C87U C99U | ≤ -4.2 |
| A28C C108A G136A | ≤ -4.2 |
| A28U A52C | -3.54 |
| C27A C36G A91U C99U | ≤ -4.2 |
| A26G G50C A91G G117A C125U G140A G143C | ≤ -4.2 |
| C27A U44A U55A A66G C87U C95G A110G C114U U144A | ≤ -4.2 |
| A29C A52G U61A A122U G141U | ≤ -4.2 |
| C27U C76G G88A C93G G100U | ≤ -4.2 |
| C27U A47G U77A C85U U146C | ≤ -4.2 |
| A28C A49U U55A U61A C76A A142C U146A | ≤ -4.2 |
| A29C A30C G62C C125G A137G A142U | -4.11 |
| C27G G50A G58A G83U | ≤ -4.2 |
| A29C G88C G92U | ≤ -4.2 |
| C27G A49C C51G G84U A98G A110G | ≤ -4.2 |
| A28U C96A A121U U148C | ≤ -4.2 |
| A26G G58C A60G U82C C93G A98U C103A C105G G143U | ≤ -4.2 |
| A26C U78C | -3.76 |
| A26G A41G U53A G74A G141A | ≤ -4.2 |
| A29G A49G C51U G70A A107U | ≤ -4.2 |
| C27U A29C U44A U55A C95G G117U | ≤ -4.2 |

| Variant | polymerase ribozyme fitness (log ratio) |
| --- | --- |
| C27G U44G G58C G71C C93G G94A U101A U102A | ≤ -4.2 |
| A28U C51A C54U C85U C123G C129U | ≤ -4.2 |
| A26G U53A | -4.06 |
| A28U C63U C72U C93U C105G A142U | ≤ -4.2 |
| A29G C57A C93A C96A U145G | ≤ -4.2 |
| A29G C54A | -3.78 |
| C27A G34A G50A A64U U78A G94U A106U G126C U148G | ≤ -4.2 |
| C27U A52G U53A C118G | -2.63 |
| C27U U45A G81A G124U | ≤ -4.2 |
| A29C A49U A150C | ≤ -4.2 |
| C27A A52G C95A C129G G140U A142U | ≤ -4.2 |
| A28G U33A A40U C87U G92A U127A G152U | -3.85 |
| A29U A41G G48C A138G | ≤ -4.2 |
| C27G G84A | -3.69 |
| C27U A37C U56G | -2.92 |
| A29G G68C C96U U102G U135G C149A | ≤ -4.2 |
| C27G U77A G86U A115G C131U G143C U151G | ≤ -4.2 |
| A29C A52C C76U C96A U135G A147C | -4.08 |
| A28U A64G G68U G83U A121C G143A | ≤ -4.2 |
| C27G C75A C79G G92U A121C C131G A147C | ≤ -4.2 |
| C27U U56A | -1.67 |
| A26G A97G | -3.72 |
| A28C G124C | ≤ -4.2 |
| A28U U44A U55A U77G A120U | ≤ -4.2 |

| Variant | polymerase ribozyme fitness (log ratio) |
| --- | --- |
| A28G G46A U55G C57A A73U C96A | ≤ -4.2 |
| A28G C76A A107G G141U U148C | ≤ -4.2 |
| A28G U44A U45A C76G U111C G133U | ≤ -4.2 |
| A26U A39U G94U A113U A119G U127C G152C | ≤ -4.2 |
| A29C C87U G94U A107C U127G G140A | ≤ -4.2 |
| C27A G86A U134A A147G | ≤ -4.2 |
| C27G G152A | ≤ -4.2 |
| A28U A37C | -3.93 |
| A28U U31C A91G C108U G136U A142G | ≤ -4.2 |
| A28G A37U C57A C123U G143C | ≤ -4.2 |
| A28U G84U G86A G94A A98G C131A | ≤ -4.2 |
| C27G C54A G65C C95U C96A C99A | ≤ -4.2 |
| C27G C85U A91U U109A C118A U127C | ≤ -4.2 |
| A28C G50A A97U G124A A138C | ≤ -4.2 |
| A26G G46U A52G C116U G140C G143C | ≤ -4.2 |
| C27U A73G C79A G140C | ≤ -4.2 |
| C27A A60G C75U C87U G100A C116U U148A | ≤ -4.2 |
| A26U C116U G141A | -1.75 |
| A29C C43G U53A G62U A147C | ≤ -4.2 |
| C27G A29G A41C G67A G74A | ≤ -4.2 |
| A29G C95A A119C G141C | ≤ -4.2 |
| A26U G83C G128A U134G U135A U146C | ≤ -4.2 |
| A28C C38A G46A A66C G71U U127G | ≤ -4.2 |
| A29G G34A U56A C75U | ≤ -4.2 |

| Variant | polymerase ribozyme fitness (log ratio) |
| --- | --- |
| A29U A47C C54A G94A U102G A110G C132A | ≤ -4.2 |
| A26U C63G G80C C85G U109G A122U | ≤ -4.2 |
| C27G A52G U53A G100A | ≤ -4.2 |
| A28G C54G C76U G94A | -4 |
| C27U G58A C63A G84U | -2.45 |
| A29C C54U G84A A97U | ≤ -4.2 |
| A28G U145C | ≤ -4.2 |
| A29C C108A A142U | ≤ -4.2 |
| A28C C32U U45A U61G U78G G92C C93A U101G C132A A150C | ≤ -4.2 |
| A26U C103A | ≤ -4.2 |
| C27G A41U C87U A150C | -3.92 |
| C27U U55G C85U A89U | -2.33 |
| A28U C35A A41U U53A G59A C85U G128A | ≤ -4.2 |
| A26G G68A C85G A120C | ≤ -4.2 |
| A28U C51A A52C C76U U78G A89G | ≤ -4.2 |
| C27A C85U | -3.43 |
| A28U U56A A97G | ≤ -4.2 |
| C27G U78A G83U A91U G94C U135G G136C | -4.03 |
| A28U C32A G50C C96A A106G U127G | ≤ -4.2 |
| A28C G67C C87A U109A | ≤ -4.2 |
| A28G C57G G84A A98G C114U | ≤ -4.2 |
| A29U A39G U55A G92A | ≤ -4.2 |
| C27U U53A | -2.76 |
